Results: paper PMC9445180, “Allosteric inhibition of HTRA1 activity by a conformational lock mechanism to treat age-related macular degeneration” (Nature Communications, 2022)
Changes are numbered by the printed parent chain. Names and notes keep the numbering of the source.

Experiments:
[1] = biological target: the molecule itself; assay: SEC; HTRA proteins and their LoopA deletion mutants alone; Superdex 200 Increase 3.2/300; 200 mM NaCl, 20 mM HEPES pH 7.5, 0.25% CHAPS; size against gel filtration standard
[2] = biological target: T1, HTRA1^PD (human HTRA1 protease domain, D161-K379) (human, UniProt Q92743); assay: SEC; HTRA1 proteins mixed with Fab15H6.v4 (1:2 molar ratio, 30 min on ice); Superdex 200 Increase 3.2/300; 200 mM NaCl, 20 mM HEPES pH 7.5, 0.25% CHAPS; size against protein standards; conditions: both partners purified
T1 construct: human HTRA1 protease domain, D161-K379, 24 kDa; His6 tag is TEV or thrombin cleavable; captured by it in SPR; also called wildtype HTRA1^PD; active HTRA1^PD; source: E. coli, purified (Ni-NTA, SEC); not shown: His6, N-terminal, kept

[3] = biological target: T2, HTRA1^PD/SA (catalytically inactive S328A mutant of the HTRA1 protease domain) (human, UniProt Q92743, S328A); assay: as above; conditions: both partners purified
T2 construct: human HTRA1 protease domain, D161-K379, with S328A; source: E. coli, purified (Ni-NTA, SEC)

[4] = biological target: T3, HTRA1^FL/SA (catalytically inactive S328A mutant of full-length HTRA1) (human, UniProt Q92743, S328A); assay: as above; conditions: both partners purified
T3 construct: human HTRA1, Q23-P480, with S328A; source: Trichoplusia ni cells, purified from the medium (Ni-NTA, SEC)

[5] = biological target: T4, HTRA2 LoopA wildtype peptide (Homo sapiens); assay: SPR; Fab15H6.v4 (1000 RU) immobilised on a CM5 chip by amine coupling, synthetic LoopA peptides as analytes, single-cycle kinetics, three-fold dilutions from 10 nM (HTRA1 peptides) or 3 μM (HTRA2, HTRA3, HTRA4 peptides); 25 °C, HBS-EP; conditions: both partners purified
T4 construct: LoopA of human HTRA2, residues 168-179; also called LoopA peptide of HTRA2; source: synthetic peptide (Abclonal)
T4 chain: DRHPFLGREVPI

[6] = biological target: T5, HTRA3 LoopA wildtype peptide (Homo sapiens); assay: as above; conditions: both partners purified
T5 construct: LoopA of human HTRA3, residues 161-172; also called LoopA peptide of HTRA3; source: synthetic peptide (Abclonal)
T5 chain: LRHPLFGRNVPL

[7] = biological target: T6, HTRA1 LoopA wildtype peptide (Homo sapiens); assay: as above; conditions: both partners purified
T6 construct: LoopA of human HTRA1, residues 190-201; also called HTRA1-LoopA peptide; LoopA peptide; source: synthetic peptide (Abclonal for SPR; NeoBiolab for the crystal)
T6 chain: RKLPFSKREVPV

[8] = biological target: T7, HTRA4 LoopA wildtype peptide (Homo sapiens); assay: as above; conditions: both partners purified
T7 construct: LoopA of human HTRA4, residues 188-199; also called LoopA peptide of HTRA4; source: synthetic peptide (Abclonal)
T7 chain: GRLLHGSRLVPV

[9] = biological target: T8, HTRA2^PD/PDZ (HTRA2 protease/PDZ domain, A134-E458) (human, UniProt O43464); assay: SPR; His6-tagged HTRA proteins (about 200 RU) captured with the His-capture kit on a CM5 chip, Fab15H6.v4 as analyte, single-cycle kinetics, three-fold dilutions from 1 nM or 1 μM; absence of binding verified with 3 μM Fab; Biacore S200, 25 °C, HBS-EP; 1:1 Langmuir model; conditions: both partners purified
T8 construct: human HTRA2 protease and PDZ domains, A134-E458; also called wildtype HTRA2; source: E. coli, purified (Ni-NTA, SEC); not shown: His6, N-terminal, kept

[10] = biological target: T1, HTRA1^PD (human HTRA1 protease domain, …); assay: as above; conditions: both partners purified
[11] = biological target: T9, HTRA3^PD/PDZ (HTRA3 protease/PDZ domain, L130-M453) (Homo sapiens, UniProt P83110); assay: as above; conditions: both partners purified
T9 construct: human HTRA3 protease and PDZ domains, L130-M453; also called wildtype HTRA3; source: E. coli, purified (Ni-NTA, SEC); not shown: His6, N-terminal, kept

[12] = biological target: T1, HTRA1^PD (human HTRA1 protease domain, …); assay: SPR; wildtype His6-tagged HTRA1^PD (about 200 RU) captured with the His-capture kit on a CM5 chip; scFv15H6.v4, Fab15H6.v4 and its mutants as analytes, single-cycle kinetics, three-fold dilutions from 10 nM or 1 μM; absence of binding confirmed up to 3 μM; 25 °C, HBS-EP; conditions: both partners purified

T9 sequence (P83110 130-453): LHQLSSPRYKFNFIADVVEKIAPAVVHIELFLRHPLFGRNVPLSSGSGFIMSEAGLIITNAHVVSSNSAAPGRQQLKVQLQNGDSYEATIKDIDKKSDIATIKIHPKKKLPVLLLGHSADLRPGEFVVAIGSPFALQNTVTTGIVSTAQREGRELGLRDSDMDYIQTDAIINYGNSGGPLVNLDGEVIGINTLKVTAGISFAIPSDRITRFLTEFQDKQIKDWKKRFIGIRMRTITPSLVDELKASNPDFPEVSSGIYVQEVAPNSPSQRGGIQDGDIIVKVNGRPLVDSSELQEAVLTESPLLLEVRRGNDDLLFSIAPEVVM

B1: HTRA1^PD-ΔLoopA (domain or fragment)
chain: not shown
notes: human HTRA1 protease domain, D161-K379, entire LoopA replaced with the beta hairpin motif NG; also called HTRA1-ΔLoopA; HTRA1^PD-ΔLoop mutant; source: E. coli, purified (Ni-NTA, SEC); not shown: His6, N-terminal, kept
stoichiometry N [1]: 3

B2: HTRA2^PD/PDZ (HTRA2 protease/PDZ domain, A134-E458) (domain or fragment, human, UniProt O43464 134-458, looked up)
chain: AVPSPPPASPRSQYNFIADVVEKTAPAVVYIEILDRHPFLGREVPISNGSGFVVAADGLIVTNAHVVADRRRVRVRLLSGDTYEAVVTAVDPVADIATLRIQTKEPLPTLPLGRSADVRQGEFVVAMGSPFALQNTITSGIVSSAQRPARDLGLPQTNVEYIQTDAAIDFGNSGGPLVNLDGEVIGVNTMKVTAGISFAIPSDRLREFLHRGEKKNSSSGISGSQRRYIGVMMLTLSPSILAELQLREPSFPDVQHGVLIHKVILGSPAHRAGLRPGDVILAIGEQMVQNAEDVYEAVRTQSQLAVQIRRGRETLTLYVTPEVTE
notes: human HTRA2 protease and PDZ domains, A134-E458; also called wildtype HTRA2; source: E. coli, purified (Ni-NTA, SEC); not shown: His6, N-terminal, kept
stoichiometry N [1]: 3

B3: Fab15H6.v4 (Fab, V domains shown)
VH: EVQLVQSGAEVKKPGASVKVSCKASGYKFTDSEMHWVRQAPGQGLEWIGGVDPETEGAAYNQKFKGRATITRDTSTSTAYLELSSLRSEDTAVYYCTRGYDYDYALDYWGQGTLVTVSS
VL: DIQMTQSPSSLSASVGDRVTITCRASSSVEFIHWYQQKPGKAPKPLISATSNLASGVPSRFSGSGSGTDFTLTISSLQPEDFATYYCQQWSSAPWTFGQGTKVEIK
notes: light chain of Fab15H6.v4; also called the Fab; source: expressed in Complete CRAP media with carbenicillin, purified (Protein G, SP Sepharose)
stoichiometry N [2]: 3 Fab per HTRA1 trimer
stoichiometry N [3]: 3 Fab per HTRA1 trimer
stoichiometry N [4]: 3 Fab per HTRA1 trimer
binding result [5]: no binding (tested: 3 μM)
binding result [6]: no binding (tested: 3 μM)
Kd [7]: 0.77 nM
binding result [8]: no binding (tested: 3 μM)
binding result [9]: no binding (tested: 3 μM Fab)
Kd [10]: 0.12 nM
binding result [11]: no binding (tested: 3 μM Fab)

B4: Fab15H6.v4 D52A (Fab, V domains shown)
VH: B3 VH with D52A
VL: B3 VL
notes: as the heavy chain of m1, with D52A; as the light chain of m1
fold affinity loss against Fab15H6.v4 [12]: 2000 fold

B5: scFv15H6.v4 (single chain Fv version of Fab15H6.v4) (scFv, V domains shown)
VH: B3 VH
VL: B3 VL
notes: variable domain of the light chain of m1, D1-K106; (GGGGS)4 linker; variable domain of the heavy chain of m1, E1-S119
Kd [12]: 9.4 nM

B6: Fab15H6.v4 with all eight key paratope residues mutated to alanine (Fab, V domains shown)
VH: B3 VH with T30A, D31A, S32A, D52A, T91A, Y100A, D101A, Y102A
VL: B3 VL
notes: as the heavy chain of m1, with eight paratope residues of the three CDR loops changed to alanine; as the light chain of m1
binding result [12]: no binding (tested: 3 μM)

B7: Fab15H6.v4 Y100A (Fab, V domains shown)
VH: B3 VH with Y100A
VL: B3 VL
notes: as the heavy chain of m1, with Y100A; as the light chain of m1
fold affinity loss against Fab15H6.v4 [12]: 200 fold
